# Source: PMC4940141 (Nature, 2016)
# B1: RAP30 (natural protein, human)
# chain: MAERGELDLTGAKQNTGVWLVKVPKYLSQQWAKASGRGEVGKLRIAKTQGRTEVSFTLNEDLANIHDIGGKPASVSAPREHPFVLQSVGGQTLTVFTESSSDKLSLEGIVVQRAECRPAASENYMRLKRLQIEESSKPVRLSQQLDKVVTTNYKPVANHQYNIEYERKKKEDGKRARADKQHVLDMLFSAFEKHQYYNLKDLVDITKQPVVYLKEILKEIGVQNVKGIHKNTWELKPEYRHYQGEEKSD
# B2: TFIIEα (natural protein)
# chain: MADPDVLTEVPAALKRLAKYVIRGFYGIEHALALDILIRNSCVKEEDMLELLKFDRKQLRSVLNNLKGDKFIKCRMRVETAADGKTTRHNYYFINYRTLVNVVKYKLDHMRRRIETDERDSTNRASFKCPVCSSTFTDLEANQLFDPMTGTFRCTFCHTEVEEDESAMPKKDARTLLARFNEQIEPIYALLRETEDVNLAYEILEPEPTEIPALKQSKDHAATTAGAASLAGGHHREAWATKGPSYEDLYTQNVVINMDDQEDLHRASLEGKSAKERPIWLRESTVQGAYGSEDMKEGGIDMDAFQEREEGHAGPDDNEEVMRALLIHEKKTSSAMAGSVGAAAPVTAANGSDSESETSESDDDSPPRPAAVAVHKREEDEEEDDEFEEVADDPIVMVAGRPFSYSEVSQRPELVAQMTPEEKEAYIAMGQRMFEDLFE
# Assays:
# Assay in all cases: cryo-EM structure
# RPB2 = RPB2 (human (endogenous in HeLa), UniProt P30876 1-1174)
# TBP = TBP (human, UniProt P20226 1-339)
# Chain of TBP (P20226 whole entry): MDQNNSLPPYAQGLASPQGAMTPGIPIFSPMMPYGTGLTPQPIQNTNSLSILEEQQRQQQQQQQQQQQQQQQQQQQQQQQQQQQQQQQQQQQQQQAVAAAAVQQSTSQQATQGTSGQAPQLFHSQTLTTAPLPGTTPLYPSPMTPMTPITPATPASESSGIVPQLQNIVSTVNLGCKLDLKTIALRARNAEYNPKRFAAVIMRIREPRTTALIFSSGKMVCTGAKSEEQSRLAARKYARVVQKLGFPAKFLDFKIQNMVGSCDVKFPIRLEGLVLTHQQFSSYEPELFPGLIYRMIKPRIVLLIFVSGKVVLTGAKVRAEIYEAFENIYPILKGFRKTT
# RPB1 = RPB1 (human (endogenous in HeLa), UniProt P24928 1-1970)
binder,measurement,setting,value
B1,binding result,RPB2,binds
same,binding result,TBP,binds
B2,binding result,RPB1,binds
